Experiment [1] concerns the target human Nav1.7 channel (type IX voltage-gated sodium channel alpha subunit) (human, UniProt Q15858 1-1988). Put plainly: cell-based or functional assay.
For experiment [2], the target named is T1, A32-CTLESIMNTLESEEDFRKY (cyclic) (human, also: biotinylated in screening assay, position not given here).
T1 construct: Human Nav1.7 peptide; also called Nav1.7 peptide A32
T1 peptide: cyclo(CTLESIMNTLESEEDFRKY)
Put plainly: peptide specificity; bead-based FMAT screen on biotinylated peptide. On the procedure: (§1) SLAM was performed using substantially the methods described in Tickle et al. 2009 (JALA, Vol. 14, number 5, p303-307). Briefly, SLAM cultures were set up using rabbit splenocytes or PBMC and supernatants were first screened for their ability to bind biotinylated peptide in a bead-based assay in the FMAT. […] Positives from this screen were then put through a negative screen to identify non-specific antibodies.

The target of experiment [3] is T2, B11.7 Cyclo[biotinyl-PEG-cysPMTEEFKN] (not fully specified; cyclic; biotinyl-PEG on the cysteine).
T2 construct: also called B11.7 peptide; Nav 1.7 peptide
T2 peptide: CPMTEEFKN
Put plainly: peptide binding ELISA (FIG. 3K legend). On the procedure:
(§2) Nunc 96 well plates were coated overnight at 4° C. in 5 ug/ml Streptavidin (Jackson 016-000-114) 100 ul/well in carbonate coating buffer. Plates were washed four times in PBS/tween and 200 ul/well of block (1% BSA in PBS) was added for 1 hour at RT. Plates were washed four times in PBS/tween and 100 ul/well of biotinylated peptide at 5 ug/ml was added for 1 hour at RT. Plates were washed four times in PBS/tween and 100 ul/well of antibody added (starting at 10 ug/ml diluting in block in half logs down the plate) for 1 hour at RT. Plates were washed four times in PBS/tween and […] goat anti rabbit Fc HRP (Jackson 111-036-046) added for 1 hour at RT. Plates were washed four times in PBS/tween and 100 ul/well TMB (3,3′,5,5′ Tetramethylbenzidine) solution added. 50 ul/well of NaF was added to stop reaction and absorbance read at 630 nm.

Experiment [4] addresses T3, B11.1 Cyclo[biotinyl-PEG-cysEHYPMTDHFNN] (not fully specified (N-terminus, bridges); printed as Cyclo[biotinyl-PEG-cysEHYPMTDHFNN]; also: biotinyl-PEG on the cysteine).
T3 construct: also called Nav 1.1 E1 peptide
T3 peptide: CEHYPMTDHFNN
Put plainly: peptide binding ELISA, biotinylated peptide on streptavidin. On the procedure: as §2

Experiment [5] has as its target T4, B11.2/3 Cyclo[biotinyl-PEG-cysEHYPMTEQFSS] (not fully specified (N-terminus, bridges); printed as Cyclo[biotinyl-PEG-cysEHYPMTEQFSS]; also: biotinyl-PEG on the cysteine).
T4 construct: also called Nav 1.2 and 1.3 E1 peptide
T4 peptide: CEHYPMTEQFSS
The experiment is described as above. How it is done: as §2

Experiment [6] addresses T5, B11.4 Cyclo[biotinyl-PEG-cysEHYPMTEHFDN] (not fully specified (N-terminus, bridges); printed as Cyclo[biotinyl-PEG-cysEHYPMTEHFDN]; also: biotinyl-PEG on the cysteine).
T5 construct: also called Nav 1.4 E1 peptide
T5 peptide: CEHYPMTEHFDN
The description is as above. How it is done: as §2

Experiment [7] deals with T6, B11.5 Cyclo[biotinyl-PEG-cysEHYNMTSEFEE] (not fully specified; cyclic; biotinyl-PEG on the cysteine).
T6 construct: also called Nav 1.5 E1 peptide
T6 peptide: CEHYNMTSEFEE
Described as above. On the procedure:
as §2

Experiment [8] has as its target T7, B11.6 Cyclo[biotinyl-PEG-cysEHHPMTPQFEH] (not fully specified; cyclic; biotinyl-PEG on the cysteine).
T7 construct: also called Nav 1.6 E1 peptide
T7 peptide: CEHHPMTPQFEH
The description is as above. On the procedure:
as §2

Experiment [9] deals with T8, B11.8 Cyclo[biotinyl-PEG-cysEHHGMSPTFEA] (not fully specified; cyclic; biotinyl-PEG on the cysteine).
T8 construct: also called Nav 1.8 E1 peptide
T8 peptide: CEHHGMSPTFEA
The experiment is described as above. How it is done:
as §2

Experiment [10] deals with T9, B11.9 Cyclo[biotinyl-PEG-cysEHHKMEASFEK] (not fully specified; cyclic; biotinyl-PEG on the cysteine).
T9 construct: also called Nav 1.9 E1 peptide
T9 peptide: CEHHKMEASFEK
Described as above. On the procedure:
as §2

Another experiment addresses T10, B11-CPMTEEFKN (cyclic) (human, also: biotinylated in screening assay, position not given here).
T10 construct: Human Nav1.7 peptide; also called Nav1.7 peptide B11
T10 peptide: cyclo(CPMTEEFKN)
Put plainly: peptide specificity; bead-based FMAT screen on biotinylated peptide. How it is done: as §1

Experiment [11] addresses T2, B11.7 Cyclo[biotinyl-PEG-cysPMTEEFKN]. Put plainly: peptide binding ELISA (FIG. 3J legend). How it is done: as §2
Background: An ELISA detects its analyte on a solid surface through an enzyme-linked reagent.

We go through 3 molecules from patent US20110135662A1 (UCB, published 2011).

Where a chain is given by its changes, count along the chain named. Where no end group is shown, it is not given here.

B1: CA167_00932 (antibody, rabbit IgG1, V domains shown)
VH: QSLEESGGRLVTPGTPLTLTCTVSGFSLSRYWMSWVRQAPGKGLEWIGNIGGGSGSTLYAPWAKGRSTISKTSTTVDLKITSPTTEDTATYFCGRYVKNGGGYRLDLWGPGTLVTVS
VL: AAVLTQTPSSVSAAVGGTVTIKCQSSQSVYNNNEFSWYQQKPGQPPKLLIYDASKLASGVPSRFSGSGSGTQFTLTISGVQCDDVATYYCLGGYNDDTNRWAFGGGTEVVVE
notes: Rabbit monoclonal from rabbit 3822; also called antibody 932
Regarding B1, in [1], the “Nav1.7 inhibition (%) at 25 µg/ml, automated patch clamp, HEK cells” value (“Nav1.7 inhibition (%) at 25 µg/ml” for short) was 27%. Moreover, the binding result in experiment [2] was “binds”.

B2: CA167_01080 (antibody, rabbit IgG1, V domains shown)
VH: QSLEESGGRLVTPETPLTLTCTASGIDLSKWPMTWVRQAPGKGLEWIGIIGRSGSTNYASWAKGRFTISKTSTTVDLKMTSPTTEDTATYFCARGGSYYDLWGQGTLVTVS
VL: AQVLTQTASPVSAAVGNTVTITCQSSQSVWKNNDLSWYQQKLGQPPKLLIYYASTLASGVSSRFKASGSGTQFTLTISDVQCDDAGTYYCVGSYDCSSADCNAFGGGTKVVVK
notes: Rabbit monoclonal from rabbit 3824
Consider B2, for which the “Nav1.7 inhibition (%) at 25 µg/ml” value in experiment [1] is 46%. Also, the binding result is reported as “binds” in experiment [3]; “no binding (tested: antibody starting at 10 ug/ml)” in [4]; “no binding (tested: antibody starting at 10 ug/ml)” in experiment [5]; “no binding (tested: antibody starting at 10 ug/ml)” in experiment [6]; “no binding (tested: antibody starting at 10 ug/ml)” in experiment [7]; “no binding (tested: antibody starting at 10 ug/ml)” in experiment [8]. Further, the binding result is listed as “no binding (tested: antibody starting at 10 ug/ml)” in experiment [9], “no binding (tested: antibody starting at 10 ug/ml)” in experiment [10] and “binds” with B11-CPMTEEFKN (cyclic).

B3: CA167_00983 (antibody, rabbit IgG1, V domains shown)
VH: QSVEESGGRLVTPGTPLTLTCTVSGFSLSNYAMSWVRQAPGKGLEWIGIIGKSGSTAYASWAKGRFTISRTSTTVDLEITSPTTEDTATYFCVRFVLLWGPGTLVTVS
VL: B2 VL with N17G, T22N, W30Y, S36A, L42P, A66G, Q72E, V80A, G86A, V91L
notes: as for B2
As to B3, the “Nav1.7 inhibition (%) at 25 µg/ml” value in experiment [1] turned out to be 41%. Moreover, the binding result is “binds” in experiment [11]; “no binding (tested: antibody starting at 10 ug/ml)” in experiment [4]; “no binding (tested: antibody starting at 10 ug/ml)” in experiment [5]; “no binding (tested: antibody starting at 10 ug/ml)” in experiment [6]; “no binding (tested: antibody starting at 10 ug/ml)” in [7]; “no binding (tested: antibody starting at 10 ug/ml)” in experiment [8]. In addition, the binding result in experiment [9] is reported as “no binding (tested: antibody starting at 10 ug/ml)”; in [10], “no binding (tested: antibody starting at 10 ug/ml)”; with B11-CPMTEEFKN (cyclic) it was “binds”.
